Assay results taken from the supplement of paper PMC12783771.
± gives the standard deviation of the averaged measurements.

B1: library; numbered along this chain (parent)
chain: MNIQIGELAKRTACPVVTIRFYEQEGLLPPPGRSRGNFRLYGEEHVERLQFIRHCRSLDMPLSDVRTLLSYRKRPDQDCGEVNMLLDEHIRQVESRIGALLELKHHLVELREACSGARPAQSCGILQGLSDCVCDTRGTTAHPSD

Assays:
[1] = variants of: B1; test: sfGFP reporter fluorescence (15 h) (µM FITC); higher = higher leak; details: library round: Round 0; ligand: none
Experimental: (§1)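 Cell-free (BL21 Star DE3 extract, PANOx-SP) biosensing: 1 µL Echo-assembled reactions with linear PbrR variant templates (5 nM) and pPbrR-sfGFP reporter, with 1 µM Pb (lead chloride), 30 µM Zn (zinc acetate) or no ligand; endpoint sfGFP fluorescence after 15 h at 30 °C, calibrated as µM FITC. Round 0 library (alanine scan, site saturation, combinatorial) of PbrR from Cupriavidus metallidurans; 2 biological replicates.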

[2] = variants of: B1; test: sfGFP reporter fluorescence (15 h) (µM FITC); higher = stronger transcriptional activation; details: library round: Round 0
Experimental: as §1

| Variant | sfGFP reporter fluorescence [1] | sfGFP reporter fluorescence ([2]; ligand: 1 µM Pb) | sfGFP reporter fluorescence ([2]; ligand: 30 µM Zn) |
| --- | --- | --- | --- |
| L85M | 0.05754 ± 0.00052 | 0.06945 ± 0.00026 | 0.597 ± 0.017 |
| L85V | 0.0585 ± 0.0018 | 0.0594 ± 0.0026 | 0.1479 ± 0.0013 |
| L85P | 0.057 ± 0.0023 | 0.05809 ± 0.00026 | 0.0555 ± 0.0013 |
| V108T | 0.0588 ± 0.00078 | 0.0724 ± 0.00078 | 0.795 ± 0.063 |
| V108H | 0.05772 ± 0.00026 | 0.0814 ± 0.0073 | 0.846 ± 0.019 |
| V108P | 0.0572 ± 0.0015 | 0.06011 ± 0.00052 | 0.0621 ± 0.0018 |
| P61N D64K K104V G128I | 0.32 ± 0.048 | 0.989 ± 0.27 | 2.48 ± 0.29 |
| P61N D64K K104V G128M | 0.739 ± 0.021 | 1.592 ± 0.0036 | 3.375 ± 0.019 |
| G116A | 0.0597 | 0.0581 ± 0.0023 | 0.18 ± 0.063 |
| L107K | 0.0561 ± 0.0057 | 0.05864 ± 0.00052 | 0.0861 ± 0.0026 |
| L107H | 0.05662 ± 0.00026 | 0.0535 ± 0.0021 | 0.0821 ± 0.0015 |
| L107P | 0.0568 ± 0.0015 | 0.0528 ± 0.0052 | 0.0621 ± 0.0018 |
| R39A | 0.0651 ± 0.0018 | 0.0599 ± 0.0029 | 0.0678 ± 0.0021 |
| P61N L107C | 1.34 ± 0.084 | 2.4 ± 0.077 | 3.92 ± 0.019 |
| M60L D64K | 0.916 ± 0.074 | 1.99 ± 0.24 | 4.629 ± 0.03 |
| E25A | 0.0634 ± 0.0036 | 0.0823 ± 0.0029 | 0.611 ± 0.041 |
| L58Y | 0.0784 ± 0.0062 | 0.229 ± 0.011 | 0.606 ± 0.036 |
| L58A | 0.0601 ± 0.001 | 0.05681 ± 0.00052 | 0.0563 ± 0.0049 |
| L58D | 0.0599 ± 0.0023 | 0.0623 | 0.0608 ± 0.0015 |
| M60L P61N K104V | 0.153 ± 0.0062 | 0.413 ± 0.017 | 1.56 ± 0.039 |
| M60L P61N D64K G128I | 0.944 ± 0.037 | 3.29 ± 0.078 | 3.77 ± 0.81 |
| D64K G128M | 0.806 ± 0.04 | 1.86 ± 0.25 | 4.98 ± 0.34 |

| Variant | sfGFP reporter fluorescence [1] | sfGFP reporter fluorescence ([2]; ligand: 1 µM Pb) | sfGFP reporter fluorescence ([2]; ligand: 30 µM Zn) |
| --- | --- | --- | --- |
| M60L D64K L107C G128M | 5.61 ± 0.24 | 4.82 ± 0.34 | 4.67 ± 0.83 |
| S63A | 0.0607 ± 0.00078 | 0.0733 ± 0.0026 | 0.725 ± 0.037 |
| P30S | 0.06249 ± 0.00026 | 0.0801 ± 0.0039 | 0.651 ± 0.14 |
| P30E | 0.0621 ± 0.0013 | 0.08594 ± 0.00078 | 0.808 ± 0.075 |
| P30F | 0.0603 ± 0.0018 | 0.0759 ± 0.001 | 0.489 ± 0.015 |
| M60L K104V | 0.255 ± 0.0057 | 1.1 ± 0.067 | 3.17 ± 0.1 |
| H45A | 0.0599 ± 0.0018 | 0.07275 ± 0.00026 | 0.687 ± 0.088 |
| R111P | 0.0577 ± 0.0018 | 0.05846 ± 0.00026 | 0.0542 ± 0.0015 |
| R111E | 0.05864 ± 0.00052 | 0.0684 ± 0.00078 | 0.267 ± 0.013 |
| R111Q | 0.0572 ± 0.001 | 0.0618 ± 0.0013 | 0.275 ± 0.0083 |
| R111I | 0.0544 ± 0.00078 | 0.0662 ± 0.0013 | 0.288 ± 0.0036 |
| R111T | 0.0599 ± 0.00078 | 0.07752 ± 0.00026 | 0.535 ± 0.081 |
| C55I | 0.0583 ± 0.0026 | 0.0616 | 0.112 ± 0.0057 |
| C55P | 0.0596 ± 0.00078 | 0.0597 | 0.05846 ± 0.00026 |
| C55R | 0.0596 ± 0.0018 | 0.0592 ± 0.0013 | 0.0572 |
| C55S | 0.06029 ± 0.00026 | 0.066 ± 0.001 | 0.203 ± 0.019 |
| C79H | 0.05919 ± 0.00026 | 0.0596 ± 0.00078 | 0.0559 ± 0.00078 |
| C79Q | 0.05901 ± 0.00052 | 0.05937 ± 0.00052 | 0.0566 ± 0.00078 |
| C79D | 0.05882 ± 0.00026 | 0.059 ± 0.0021 | 0.0564 ± 0.001 |
| E43S | 0.06102 ± 0.00026 | 0.0889 ± 0.015 | 1.41 ± 0.17 |
| E43H | 0.0669 ± 0.00078 | 0.0891 ± 0.013 | 0.629 ± 0.0098 |
| E43T | 0.06341 ± 0.00052 | 0.104 ± 0.0054 | 1.5 ± 0.14 |

| Variant | sfGFP reporter fluorescence [1] | sfGFP reporter fluorescence ([2]; ligand: 1 µM Pb) | sfGFP reporter fluorescence ([2]; ligand: 30 µM Zn) |
| --- | --- | --- | --- |
| C114G | 0.052 ± 0.0015 | 0.0541 ± 0.00078 | 0.05 ± 0.00078 |
| C114R | 0.0594 ± 0.001 | 0.06029 ± 0.00026 | 0.0564 ± 0.0015 |
| E112P | 0.0557 ± 0.001 | 0.057 ± 0.00078 | 0.0561 |
| E112G | 0.0586 ± 0.0026 | 0.0847 ± 0.0042 | 1.23 ± 0.12 |
| E112H | 0.05882 ± 0.00026 | 0.077 ± 0.0057 | 0.424 ± 0.012 |
| L100A | 0.0803 ± 0.0015 | 0.131 ± 0.0044 | 0.663 ± 0.2 |
| I52A | 0.06341 ± 0.00052 | 0.0596 ± 0.0023 | 0.077 ± 0.0015 |
| R48A | 0.0546 ± 0.0015 | 0.0541 ± 0.0023 | 0.3984 ± 0.0031 |
| F21Q | 0.0605 | 0.05827 ± 0.00052 | 0.0625 ± 0.00078 |
| F21A | 0.059 | 0.0541 ± 0.0013 | 0.0673 ± 0.0013 |
| F21N | 0.0605 ± 0.0015 | 0.0605 ± 0.0021 | 0.06267 ± 0.00052 |
| L68T | 0.0612 ± 0.0015 | 0.0605 ± 0.001 | 0.0717 ± 0.0013 |
| L68S | 0.061 ± 0.0023 | 0.05882 ± 0.00026 | 0.0636 ± 0.0039 |
| L68G | 0.06395 ± 0.00026 | 0.05827 ± 0.00052 | 0.0656 ± 0.00052 |
| L68Y | 0.0634 | 0.0773 ± 0.0031 | 0.908 ± 0.05 |
| L68M | 0.0902 ± 0.0021 | 0.2142 ± 0.0013 | 1.42 ± 0.044 |
| I90G | 0.0535 ± 0.0031 | 0.0577 ± 0.00078 | 0.222 ± 0.0086 |
| I90M | 0.0588 ± 0.0018 | 0.0625 ± 0.0018 | 0.384 ± 0.013 |
| I90A | 0.06249 ± 0.00026 | 0.0792 ± 0.0031 | 0.521 ± 0.0044 |
| K104V | 0.0652 ± 0.0088 | 0.173 ± 0.039 | 1.35 ± 0.19 |
| K104S | 0.0612 ± 0.0021 | 0.092 ± 0.02 | 1 ± 0.052 |
| K104F | 0.0581 ± 0.011 | 0.117 ± 0.029 | 0.889 ± 0.037 |

| Variant | sfGFP reporter fluorescence [1] | sfGFP reporter fluorescence ([2]; ligand: 1 µM Pb) | sfGFP reporter fluorescence ([2]; ligand: 30 µM Zn) |
| --- | --- | --- | --- |
| K104M | 0.059 ± 0.0088 | 0.111 ± 0.035 | 1.13 ± 0.15 |
| L86A | 0.07 ± 0.0015 | 0.0647 ± 0.0018 | 0.0782 ± 0.0018 |
| D131G | 0.0566 ± 0.00078 | 0.0991 ± 0.0034 | 0.604 ± 0.15 |
| D131F | 0.0596 ± 0.0013 | 0.0821 ± 0.0057 | 0.723 ± 0.048 |
| L27Y | 0.066 | 0.0792 ± 0.0021 | 0.254 ± 0.011 |
| L27C | 0.06285 ± 0.00026 | 0.0641 ± 0.001 | 0.142 ± 0.0023 |
| L27V | 0.0625 ± 0.00078 | 0.0717 ± 0.00078 | 0.349 ± 0.0044 |
| L27Q | 0.06432 ± 0.00026 | 0.0618 ± 0.0013 | 0.06285 ± 0.00026 |
| P61N K104V L107C G128M | 0.584 ± 0.064 | 2.12 ± 0.083 | 3.41 ± 0.56 |
| L129S | 0.0577 ± 0.0013 | 0.05901 ± 0.00052 | 0.0563 ± 0.00078 |
| Y41P | 0.0583 ± 0.001 | 0.0597 ± 0.001 | 0.0601 ± 0.0026 |
| Y41Q | 0.0581 ± 0.0023 | 0.0597 | 0.0574 ± 0.0054 |
| Y41L | 0.0597 | 0.0596 ± 0.0029 | 0.0729 ± 0.0083 |
| F51A | 0.06597 ± 0.00052 | 0.0621 ± 0.0023 | 0.16 ± 0.0083 |
| M60S | 0.0601 | 0.0608 ± 0.001 | 0.0592 ± 0.00078 |
| M60N | 0.0616 ± 0.001 | 0.0607 ± 0.0018 | 0.061 ± 0.0013 |
| M60L P61N G128M | 0.822 ± 0.13 | 1.91 ± 0.38 | 3.32 ± 0.64 |
| M60L P61N G128I | 0.436 ± 0.043 | 1.55 ± 0.032 | 3.7563 ± 0.0021 |
| D64K K104V G128M | 1.36 ± 0.059 | 2.78 ± 0.079 | 4.45 ± 0.11 |
| E94S | 0.0674 ± 0.0036 | 0.132 ± 0.0031 | 1.51 ± 0.013 |
| Q121A | 0.0645 ± 0.001 | 0.0944 ± 0.0023 | 1.16 ± 0.19 |
| L28M | 0.0616 | 0.077 ± 0.0015 | 0.618 ± 0.023 |
